In general, Kd refers to the free concentration of one partner at which half of the binding sites on the other are occupied at equilibrium, for simple one-to-one binding. Low values mean a tighter complex, high ones a looser complex.

For data set [1], the target named is T1, Nsp9COV19 (15N-labeled) (SARS-CoV-2, UniProt P0DTD1 4141-4253). Nature of the data set: 15N-1H HSQC NMR titration.
Data set [2] concerns the target T1, Nsp9COV19 (15N-labeled). The data set can be described thus: 15N-1H HSQC NMR titration. The source holds these as a separate data set.

In turn, UUGGAGUU (ssRNA) [RNA.2 (8 nt ssRNA)] registered a Kd in data set [1] of approximately 550 µM.

AUUCG (ssRNA) [RNA.1 (5 nt ssRNA)]: the binding result in data set [2] is “binds”.

(Values after PMC8317483.)
